The series concerns the molecule itself. The experiment in a line: cryo-EM structure; P22 procapsids (upper CsCl band) from infected S. typhimurium, in phage buffer (10 mM Tris-HCl, 1 mM MgCl2, pH 7.4); symmetry-mismatch reconstruction at about 9 Å and local reconstructions (portal 3.0 Å with C12, nodules 4.9 Å, SP trimer 6.9 Å, SP tetramer 6.9 Å, C-loop 6.7 Å); AlphaFold2 model of gp8 fitted into the maps.

Where “and” joins values, the source holds several entries; their conditions need not be identical. Equal entries are not always repeated.

From PMC12005531, “Structure of the scaffolding protein and portal within the bacteriophage P22 procapsid provides insights into the self-assembly process” (PLOS Biology, 2025) come the findings set out here.

B1: bacteriophage P22 scaffolding protein gp8 (natural protein, UniProt P26748 1-303, looked up)
chain: MEPTTEIQATEDLTLSGDHAAASADSLVVDNANDNAGQEEGFEIVLKDDETAPKQDPAKNAEFARRRIERKRQRELEQQMEAVKRGELPESLRVNPDLPPQPDINAYLSEEGLAKYDYDNSRALAAFNAANTEWLMKAQDARSNAVAEQGRKTQEFTQQSAQYVEAARKHYDAAEKLNIPDYQEKEDAFMQLVPPAVGADIMRLFPEKSAALMYHLGANPEKARQLLAMDGQSALIELTRLSERLTLKPRGKQISSAPPADQPITGDVSAANKDAIRKQMDAAASKGDVETYRKLKAKLKGIR
notes: scaffolding protein gp8 of bacteriophage P22, 303 amino acid residues, 33.6 kDa; domains: N-loop 1-57, base 58-84 and 163-245, column 85-162, C-loop 246-267, hook 268-303; the N-loop was not resolved; Native protein within the procapsid; About 250-300 copies per procapsid, from cited work; also called SP; P22 SP; source: phage P22 propagated in S. typhimurium; inside procapsids purified by CsCl …
As for B1, the stoichiometry N – broadly, the number of molecules, sites or subunits per partner or assembly – was 2 and 3 and 4.
